Assay results as given in paper PMC4188090, “Crystallization and preliminary X-ray diffraction analyses of the redox-controlled complex of terminal oxygenase and ferredoxin components in the Rieske nonhaem iron oxygenase carbazole 1,9a-dioxygenase” (Acta Crystallographica. Section F, Structural Biology …, 2014).

B1: terminal oxygenase (Oxy) component of carbazole 1,9a-dioxygenase (CARDO) from Janthinobacterium sp. J3, reduced state (enzyme, UniProt Q84II6 1-384, looked up)
chain: MANVDEAILKRVKGWAPYVDAKLGFRNHWYPVMFSKEINEGEPKTLKLLGENLLVNRIDGKLYCLKDRCLHRGVQLSVKVECKTKSTITCWYHAWTYRWEDGVLCDILTNPTSAQIGRQKLKTYPVQEAKGCVFIYLGDGDPPPLARDTPPNFLDDDMEILGKNQIIKSNWRLAVENGFDPSHIYIHKDSILVKDNDLALPLGFAPGGDRKQQTRVVDDDVVGRKGVYDLIGEHGVPVFEGTIGGEVVREGAYGEKIVANDISIWLPGVLKVNPFPNPDMMQFEWYVPIDENTHYYFQTLGKPCANDEERKKYEQEFESKWKPMALEGFNNDDIWAREAMVDFYADDKGWVNEILFESDEAIVAWRKLASEHNQGIQTQAHVSG
notes: terminal oxygenase component (Oxy) of carbazole 1,9a-dioxygenase, Janthinobacterium sp; J3; histidine-tagged; Holds a Rieske-type [2Fe-2S] cluster (reduced in this experiment) and a nonhaem iron centre; Trimer in the crystal; Construct as in earlier work (Ashikawa et al., 2005; Matsuzawa et al., 2013); also called Oxyred; reduced Oxy; source: E. coli BL21(DE3), purified (metal-chelation …)

Legend:
[1] = target: B1; experiment: crystal structure; Oxyred and Fdox mixed in a 1:3 molar ratio with 10% glycerol, anaerobic, hanging-drop vapour diffusion at 293 K, 0.1 M sodium cacodylate pH 5.7, 14% (w/v) PEG 3350; dissolved crystals checked by SDS-PAGE and anti-His Western blot; data to 2.25 A, molecular replacement with PDB 2de5 (preliminary); details: both partners purified
[2] = target: the molecule itself; experiment: as above

Binder	stoichiometry N [1]	stoichiometry N [2]
ferredoxin (Fd) component of carbazole 1,9a-dioxygenase (CARDO) from Pseudomonas resinovorans CA10, oxidized state (natural protein, ferredoxin component (Fd) of carbazole 1,9a-dioxygenase, Pseudomonas resinovorans CA10; histidine-tagged; Holds a Rieske-type [2Fe-2S] cluster (oxidized in this experiment); Called a monomer in the crystal; Construct as in earlier work (Ashikawa et al., 2005; Matsuzawa et al., 2013); also called Fdox; oxidized Fd; source: E. coli BL21(DE3), purified (metal-chelation chromatography, gel filtration)) MNQIWLKVCAASDMQPGTIRRVNRVGAAPLAVYRVGDQFYATEDTCTHGIASLSEGTLDGDVIECPFHGGAFNVCTGMPASSPCTVPLGVFEVEVKEGEVYVAGEKK	2 molecules of the Fd monomer per one Oxy trimer	–
B1	–	3
